Tests used:
NCAPD3 = target: T1, NCAPD3 (human, UniProt P42695 1-1498); assay: IP/MS, LZTR1 wild type-FLAG, U87
T1 sequence (looked up): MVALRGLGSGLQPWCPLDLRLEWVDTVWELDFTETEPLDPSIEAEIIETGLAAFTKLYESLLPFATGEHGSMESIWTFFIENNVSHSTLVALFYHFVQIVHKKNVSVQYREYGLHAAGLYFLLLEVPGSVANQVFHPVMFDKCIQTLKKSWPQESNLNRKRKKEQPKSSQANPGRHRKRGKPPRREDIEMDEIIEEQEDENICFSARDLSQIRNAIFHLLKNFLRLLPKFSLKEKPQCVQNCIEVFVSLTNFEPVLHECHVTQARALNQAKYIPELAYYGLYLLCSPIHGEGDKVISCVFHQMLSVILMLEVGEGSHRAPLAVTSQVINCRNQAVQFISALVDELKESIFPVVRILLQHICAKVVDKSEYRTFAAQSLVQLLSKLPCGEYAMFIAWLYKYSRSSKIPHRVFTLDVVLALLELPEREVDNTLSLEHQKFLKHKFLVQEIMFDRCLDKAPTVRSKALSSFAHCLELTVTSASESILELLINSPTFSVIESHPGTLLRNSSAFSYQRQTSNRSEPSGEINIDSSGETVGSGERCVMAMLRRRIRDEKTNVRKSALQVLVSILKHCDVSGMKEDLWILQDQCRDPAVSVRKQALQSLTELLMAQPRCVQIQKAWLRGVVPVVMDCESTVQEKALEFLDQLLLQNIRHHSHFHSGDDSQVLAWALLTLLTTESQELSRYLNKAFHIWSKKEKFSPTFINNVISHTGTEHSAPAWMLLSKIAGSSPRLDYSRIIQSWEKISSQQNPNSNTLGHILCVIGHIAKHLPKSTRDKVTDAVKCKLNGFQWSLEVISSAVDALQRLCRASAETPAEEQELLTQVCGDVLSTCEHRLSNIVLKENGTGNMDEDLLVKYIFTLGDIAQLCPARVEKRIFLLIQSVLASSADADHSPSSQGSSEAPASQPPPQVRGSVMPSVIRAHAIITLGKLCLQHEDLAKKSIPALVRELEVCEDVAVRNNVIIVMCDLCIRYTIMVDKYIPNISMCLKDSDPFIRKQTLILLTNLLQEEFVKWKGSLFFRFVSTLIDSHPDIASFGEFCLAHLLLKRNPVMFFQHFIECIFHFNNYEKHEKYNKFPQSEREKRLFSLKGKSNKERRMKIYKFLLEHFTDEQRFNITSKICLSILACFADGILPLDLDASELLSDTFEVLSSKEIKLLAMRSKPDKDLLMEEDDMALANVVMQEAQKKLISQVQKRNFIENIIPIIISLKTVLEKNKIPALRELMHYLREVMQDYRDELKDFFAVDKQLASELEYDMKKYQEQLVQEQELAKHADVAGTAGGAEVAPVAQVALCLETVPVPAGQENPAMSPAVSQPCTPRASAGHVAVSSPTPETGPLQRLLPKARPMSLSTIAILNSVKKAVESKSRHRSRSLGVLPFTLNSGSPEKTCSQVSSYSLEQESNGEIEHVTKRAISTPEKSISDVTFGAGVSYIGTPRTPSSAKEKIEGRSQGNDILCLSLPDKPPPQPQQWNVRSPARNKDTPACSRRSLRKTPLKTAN
Method in brief: (§1)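 Extracted peptides in 3% acetonitrile/0.1% formic acid ran on a 50 cm C18 column into an Orbitrap Fusion, with MaxQuant identification and spectral counting.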

GTF3C2 = target: T2, GTF3C2 (human, UniProt Q8WUA4 1-911, limits assumed); assay: IP/MS, LZTR1 wild type-FLAG, U87
T2 sequence (looked up): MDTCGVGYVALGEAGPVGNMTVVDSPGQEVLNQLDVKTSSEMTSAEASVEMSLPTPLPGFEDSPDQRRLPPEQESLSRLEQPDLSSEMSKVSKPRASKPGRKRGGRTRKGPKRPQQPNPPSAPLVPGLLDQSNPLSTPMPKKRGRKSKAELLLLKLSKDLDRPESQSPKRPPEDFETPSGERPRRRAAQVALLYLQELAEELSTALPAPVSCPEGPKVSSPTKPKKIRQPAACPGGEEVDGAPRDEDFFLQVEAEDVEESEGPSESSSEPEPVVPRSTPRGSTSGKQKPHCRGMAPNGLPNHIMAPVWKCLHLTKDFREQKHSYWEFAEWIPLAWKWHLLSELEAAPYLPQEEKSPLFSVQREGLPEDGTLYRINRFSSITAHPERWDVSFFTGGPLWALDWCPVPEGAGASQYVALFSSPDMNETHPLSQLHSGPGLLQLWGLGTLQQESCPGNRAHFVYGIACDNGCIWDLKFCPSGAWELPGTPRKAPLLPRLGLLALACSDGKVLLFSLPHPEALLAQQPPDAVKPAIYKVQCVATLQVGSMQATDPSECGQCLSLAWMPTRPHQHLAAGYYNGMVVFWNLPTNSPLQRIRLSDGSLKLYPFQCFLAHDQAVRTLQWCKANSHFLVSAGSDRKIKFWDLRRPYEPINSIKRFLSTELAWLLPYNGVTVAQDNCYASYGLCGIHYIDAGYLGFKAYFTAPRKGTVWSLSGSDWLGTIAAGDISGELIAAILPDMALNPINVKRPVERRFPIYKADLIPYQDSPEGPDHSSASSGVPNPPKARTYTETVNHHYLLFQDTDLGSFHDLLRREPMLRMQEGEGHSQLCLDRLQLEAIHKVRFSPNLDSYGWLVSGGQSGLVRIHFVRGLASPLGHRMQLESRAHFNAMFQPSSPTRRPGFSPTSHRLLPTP
Method in brief: as §1

B1: LZTR1-FLAG (other, human, UniProt Q8N653 1-840, looked up)
chain: MAGPGSTGGQIGAAALAGGARSKVAPSVDFDHSCSDSVEYLTLNFGPFETVHRWRRLPPCDEFVGARRSKHTVVAYKDAIYVFGGDNGKTMLNDLLRFDVKDCSWCRAFTTGTPPAPRYHHSAVVYGSSMFVFGGYTGDIYSNSNLKNKNDLFEYKFATGQWTEWKIEGRLPVARSAHGATVYSDKLWIFAGYDGNARLNDMWTIGLQDRELTCWEEVAQSGEIPPSCCNFPVAVCRDKMFVFSGQSGAKITNNLFQFEFKDKTWTRIPTEHLLRGSPPPPQRRYGHTMVAFDRHLYVFGGAADNTLPNELHCYDVDFQTWEVVQPSSDSEVGGAEVPERACASEEVPTLTYEERVGFKKSRDVFGLDFGTTSAKQPTQPASELPSGRLFHAAAVISDAMYIFGGTVDNNIRSGEMYRFQFSCYPKCTLHEDYGRLWESRQFCDVEFVLGEKEECVQGHVAIVTARSRWLRRKITQARERLAQKLEQEAAPVPREAPGVAAGGARPPLLHVAIREAEARPFEVLMQFLYTDKIKYPRKGHVEDVLLIMDVYKLALSFQLCRLEQLCRQYIEASVDLQNVLVVCESAARLQLSQLKEHCLNFVVKESHFNQVIMMKEFERLSSPLIVEIVRRKQQPPPRTPLDQPVDIGTSLIQDMKAYLEGAGAEFCDITLLLDGHPRPAHKAILAARSSYFEAMFRSFMPEDGQVNISIGEMVPSRQAFESMLRYIYYGEVNMPPEDSLYLFAAPYYYGFYNNRLQAYCKQNLEMNVTVQNVLQILEAADKTQALDMKRHCLHIIVHQFTKVSKLPTLRSLSQQLLLDIIDSLASHISDKQCAELGADI
notes: Expressed in HEK 293T, HeLa or U87 cells; used as cell lysate; also called LZTR1 wild type-FLAG; LZTR1 WT; not shown: FLAG tag at the C-terminus
binding result (NCAPD3): binds
binding result (GTF3C2): binds

From patent US20250262210A1 (TRUSTEES OF COLUMBIA UNIVERSITY IN THE CITY OF NEW YORK, published 2025)
